# Assay results reported in publication doi:10.1101/2025.11.22.689886 (bioRxiv, 2025).
# B1: transdermal peptide-recombinant type III collagen fusion protein (other, human)
# chain: FEGPASRPGFPGMKGHRGFDGRNGEKGETGAPGLKGENGLPGENGAPGPMGPRGAPGERGRPGLPGAAGARGNDGARGSDGQPGPPGPPGTAGFPGSPGAKGEVGPAGSPGSNGAPGQRGEPGPQGHAGAQGPPGPPGINGSPGGKGEMGPAGIPGAPGLMGARGPPGPAGANGAPGLRGGAGEPGKNGAKGEPGPRGERGEAGIPGVPGAKGEDGKDGSPGEPGANG
# Target: the molecule itself
# Assay: SEC
protein,measurement,value
B1,stoichiometry N,3
